Experimental data taken from patent publication US20130251711A1.

Experiments:
[1] = target: KIR on patient NK cells (KIR2D receptors; KIR2DL1 and KIR2DL2/3); experiment: receptor occupancy on patient NK cells by flow cytometry after a single i.v. dose of 0.003 mg/kg (AML dose-escalation trial)
[2] = target: KIR on patient NK cells (KIR2D receptors; KIR2DL1 and KIR2DL2/3); experiment: receptor occupancy on patient NK cells by flow cytometry after a single i.v. dose of 0.0003 mg/kg (AML dose-escalation trial)

KIR occupancy [1]: 90%
KIR occupancy [2]: 50%
Substance: anti-KIR antibody 1-7F9
